# According to the supplement of paper PMC9112550, “Optimization of the antimicrobial peptide Bac7 by deep mutational scanning” (BMC Biology, 2022):
# System: Escherichia coli TOP10
# Test: shrunken log2 fold change of peptide-encoding DNA abundance (4.5 h post-induction vs induction); higher = less antimicrobial activity (less host growth inhibition)
# Settings: time post-induction: 4.5 h; library: site-saturation at positions 5, 18, 19, 20
# 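Also: peptides expressed intracellularly from a pBAD plasmid library in pooled LB shake-flask culture, induced with 0.3% L-arabinose, DNA abundance read by NGS, three biological replicates, DESeq2 with apeglm shrinkage.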
row,Sequence,shrunken log2 fold change
1,RRIRNRPPRLPRPRPRPFWPPRP,0.226
2,RRIRMRPPRLPRPRPRPCGAPRP,1.15
3,RRIRNRPPRLPRPRPRPHFKPRP,-0.52
4,RRIRIRPPRLPRPRPRPDPGPRP,-0.0404
5,RRIRSRPPRLPRPRPRPIMLPRP,-0.156
6,RRIRARPPRLPRPRPRPWVMPRP,-0.156
7,RRIRWRPPRLPRPRPRPGYAPRP,0.38
8,RRIRYRPPRLPRPRPRPACSPRP,-0.447
9,RRIRIRPPRLPRPRPRPSDHPRP,-0.91
10,RRIRIRPPRLPRPRPRPKGSPRP,0.00745
11,RRIRARPPRLPRPRPRPKYLPRP,-0.299
12,RRIRMRPPRLPRPRPRPQKYPRP,0.136
13,RRIRSRPPRLPRPRPRPCNQPRP,-0.391
14,RRIRMRPPRLPRPRPRPETHPRP,2.51
15,RRIRKRPPRLPRPRPRPIFHPRP,0.381
16,RRIRNRPPRLPRPRPRPRCKPRP,0.0547
17,RRIRCRPPRLPRPRPRPRCGPRP,0.191
18,RRIRRRPPRLPRPRPRPSDSPRP,0.141
19,RRIRVRPPRLPRPRPRPCCCPRP,0.0615
20,RRIRVRPPRLPRPRPRPNTDPRP,-0.626
21,RRIRYRPPRLPRPRPRPLSRPRP,-0.155
22,RRIRYRPPRLPRPRPRPVRKPRP,0.195
23,RRIRSRPPRLPRPRPRPEFSPRP,0.203
24,RRIRARPPRLPRPRPRPTFFPRP,0.197
25,RRIRYRPPRLPRPRPRPQLRPRP,-0.193

row,Sequence,shrunken log2 fold change
1,RRIRKRPPRLPRPRPRPNMRPRP,0.334
2,RRIRWRPPRLPRPRPRPRGIPRP,0.234
3,RRIRDRPPRLPRPRPRPQGMPRP,-0.00277
4,RRIRRRPPRLPRPRPRPQTAPRP,-0.11
5,RRIRQRPPRLPRPRPRPMNPPRP,-0.0843
6,RRIRDRPPRLPRPRPRPSYPPRP,-0.2
7,RRIRGRPPRLPRPRPRPFEGPRP,0.0595
8,RRIRCRPPRLPRPRPRPVVCPRP,0.113
9,RRIRWRPPRLPRPRPRPAFAPRP,1.23
10,RRIRARPPRLPRPRPRPAWGPRP,0.616
11,RRIRFRPPRLPRPRPRPNYEPRP,-0.774
12,RRIRLRPPRLPRPRPRPPILPRP,-0.287
13,RRIRMRPPRLPRPRPRPACQPRP,0.141
14,RRIRHRPPRLPRPRPRPHDSPRP,-0.03
15,RRIRDRPPRLPRPRPRPSEEPRP,0.277
16,RRIRMRPPRLPRPRPRPKENPRP,1.9
17,RRIRERPPRLPRPRPRPDRLPRP,-0.147
18,RRIRLRPPRLPRPRPRPSQEPRP,-0.0518
19,RRIRLRPPRLPRPRPRPTGLPRP,0.177
20,RRIRERPPRLPRPRPRPRHDPRP,-0.328
21,RRIRYRPPRLPRPRPRPRRRPRP,-0.0051
22,RRIRTRPPRLPRPRPRPYPIPRP,0.00205
23,RRIRERPPRLPRPRPRPNGYPRP,-0.193
24,RRIRHRPPRLPRPRPRPPIIPRP,-0.183
25,RRIRPRPPRLPRPRPRPHIYPRP,-0.576

row,Sequence,shrunken log2 fold change
1,RRIRWRPPRLPRPRPRPADYPRP,-0.123
2,RRIRRRPPRLPRPRPRPHRLPRP,0.0507
3,RRIRHRPPRLPRPRPRPHNWPRP,-0.214
4,RRIRRRPPRLPRPRPRPCDYPRP,-0.489
5,RRIRARPPRLPRPRPRPVGLPRP,0.321
6,RRIRTRPPRLPRPRPRPMQMPRP,0.39
7,RRIRFRPPRLPRPRPRPVIQPRP,-0.414
8,RRIRARPPRLPRPRPRPIYFPRP,-0.0784
9,RRIRFRPPRLPRPRPRPIVEPRP,0.0776
10,RRIRFRPPRLPRPRPRPMLLPRP,-0.128
11,RRIRSRPPRLPRPRPRPMQMPRP,0.512
12,RRIRRRPPRLPRPRPRPKTGPRP,0.1
13,RRIRLRPPRLPRPRPRPQASPRP,0.0594
14,RRIRKRPPRLPRPRPRPNEDPRP,-0.00122
15,RRIRSRPPRLPRPRPRPAVMPRP,0.139
16,RRIRWRPPRLPRPRPRPACCPRP,0.454
17,RRIRKRPPRLPRPRPRPHVMPRP,0.0754
18,RRIRERPPRLPRPRPRPWLQPRP,0.0293
19,RRIRLRPPRLPRPRPRPHLLPRP,-0.0156
20,RRIRARPPRLPRPRPRPNTFPRP,-0.0206
21,RRIRARPPRLPRPRPRPAWVPRP,0.235
22,RRIRIRPPRLPRPRPRPMLRPRP,-0.119
23,RRIRPRPPRLPRPRPRPHVSPRP,0.00841
24,RRIRERPPRLPRPRPRPGQQPRP,-0.0809
25,RRIRNRPPRLPRPRPRPFFEPRP,-0.0529

row,Sequence,shrunken log2 fold change
1,RRIRQRPPRLPRPRPRPHRLPRP,-0.0506
2,RRIRFRPPRLPRPRPRPLIIPRP,-0.575
3,RRIRVRPPRLPRPRPRPQMPPRP,0.204
4,RRIRGRPPRLPRPRPRPLLFPRP,0.873
5,RRIRCRPPRLPRPRPRPQSIPRP,-0.394
6,RRIRSRPPRLPRPRPRPHEVPRP,-0.0564
7,RRIRYRPPRLPRPRPRPTSLPRP,-0.0466
8,RRIRERPPRLPRPRPRPRSAPRP,0.25
9,RRIRVRPPRLPRPRPRPDQVPRP,-0.202
10,RRIRSRPPRLPRPRPRPKRNPRP,0.228
11,RRIRDRPPRLPRPRPRPDRQPRP,0.0286
12,RRIRHRPPRLPRPRPRPESGPRP,-0.0115
13,RRIRARPPRLPRPRPRPHGMPRP,0.238
14,RRIRKRPPRLPRPRPRPLSKPRP,0.213
15,RRIRMRPPRLPRPRPRPSNCPRP,-0.376
16,RRIRLRPPRLPRPRPRPFEDPRP,-0.193
17,RRIRFRPPRLPRPRPRPAQKPRP,0.166
18,RRIRQRPPRLPRPRPRPGENPRP,-0.0193
19,RRIRARPPRLPRPRPRPWWWPRP,0.0143
20,RRIRSRPPRLPRPRPRPTDDPRP,-0.0687
21,RRIRPRPPRLPRPRPRPMDCPRP,-0.00833
22,RRIRTRPPRLPRPRPRPGSLPRP,-0.0994
23,RRIRARPPRLPRPRPRPVYDPRP,0.0386
24,RRIRMRPPRLPRPRPRPHCIPRP,-0.0281
25,RRIRWRPPRLPRPRPRPDRFPRP,0.0986

row,Sequence,shrunken log2 fold change
1,RRIRSRPPRLPRPRPRPVRNPRP,0.0299
2,RRIRKRPPRLPRPRPRPALMPRP,0.32
3,RRIRLRPPRLPRPRPRPVRDPRP,-0.105
4,RRIRSRPPRLPRPRPRPYPSPRP,-0.203
5,RRIRMRPPRLPRPRPRPCREPRP,-0.126
6,RRIRKRPPRLPRPRPRPVDAPRP,0.493
7,RRIRYRPPRLPRPRPRPNSDPRP,-0.233
8,RRIRTRPPRLPRPRPRPWQLPRP,-0.189
9,RRIRLRPPRLPRPRPRPFNVPRP,-0.485
10,RRIRFRPPRLPRPRPRPDGLPRP,0.00785
11,RRIRWRPPRLPRPRPRPSKRPRP,0.149
12,RRIRYRPPRLPRPRPRPACMPRP,-0.0495
13,RRIRGRPPRLPRPRPRPWGCPRP,0.702
14,RRIRQRPPRLPRPRPRPWFQPRP,-0.0867
15,RRIRPRPPRLPRPRPRPLARPRP,0.388
16,RRIRARPPRLPRPRPRPKTEPRP,0.38
17,RRIRPRPPRLPRPRPRPSWLPRP,-0.0766
18,RRIRMRPPRLPRPRPRPSLGPRP,0.193
19,RRIRSRPPRLPRPRPRPDYMPRP,-0.355
20,RRIRGRPPRLPRPRPRPEKKPRP,0.102
21,RRIRHRPPRLPRPRPRPCSKPRP,-0.0875
22,RRIRNRPPRLPRPRPRPDWHPRP,-0.394
23,RRIRDRPPRLPRPRPRPMWWPRP,-0.0122
24,RRIRKRPPRLPRPRPRPDMPPRP,0.122
25,RRIRHRPPRLPRPRPRPQGGPRP,-0.0982

row,Sequence,shrunken log2 fold change
1,RRIRSRPPRLPRPRPRPNAAPRP,0.675
2,RRIRGRPPRLPRPRPRPATVPRP,0.244
3,RRIRLRPPRLPRPRPRPWDTPRP,0.0949
4,RRIRCRPPRLPRPRPRPKRVPRP,0.267
5,RRIRKRPPRLPRPRPRPRGVPRP,0.782
6,RRIRVRPPRLPRPRPRPWNKPRP,-0.635
7,RRIRIRPPRLPRPRPRPLPRPRP,0.2
8,RRIRPRPPRLPRPRPRPDENPRP,-0.0444
9,RRIRWRPPRLPRPRPRPPKMPRP,0.172
10,RRIRTRPPRLPRPRPRPGIHPRP,-0.158
11,RRIRPRPPRLPRPRPRPKQRPRP,0.186
12,RRIRGRPPRLPRPRPRPMDNPRP,0.12
13,RRIRERPPRLPRPRPRPIDNPRP,-0.108
14,RRIRRRPPRLPRPRPRPWVFPRP,-0.106
15,RRIRTRPPRLPRPRPRPWPVPRP,-0.105
16,RRIRRRPPRLPRPRPRPTCTPRP,0.165
17,RRIRYRPPRLPRPRPRPVRRPRP,0.0834
18,RRIRARPPRLPRPRPRPGSNPRP,0.127
19,RRIRARPPRLPRPRPRPMWEPRP,-0.000921
20,RRIRARPPRLPRPRPRPTMLPRP,0.15
21,RRIRTRPPRLPRPRPRPFSKPRP,0.0087
22,RRIRTRPPRLPRPRPRPGNQPRP,-0.0161
23,RRIRCRPPRLPRPRPRPINQPRP,-0.485
24,RRIRARPPRLPRPRPRPEWFPRP,0.0641
25,RRIRCRPPRLPRPRPRPFSSPRP,-0.24
